This series deals with MS2 coat protein. As to the kind of experiment: apparent KD of MS2 coat protein; designed switch direction (-1 OFF switch, 1 ON switch): -1; higher = weaker reporter binding. The essentials:
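Apparent KD, taken as the median over clusters for each design, was obtained by curve-fitting normalised cluster fluorescence. Designed RNA switches had been transcribed on Illumina chips by stalled E. coli RNA polymerase and titrated with SNAP-549-labelled MS2 coat protein, doubling from 0.7 or 1.5 nM to 3 µM.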

Where [1] appears, read: input ligand: microRNA oligo, concentration not stated.
[2] abbreviates: Eterna round: R95, input ligand: microRNA oligo, concentration not stated.
Where [3] appears, read: Eterna round: R95, input ligand: FMN 200 uM.
Where [4] appears, read: Eterna round: R95, input ligand: none.

As to “GGGAGGAGUGUAGGAUAUCCGACAAUCCUGUCAGGAGAAGGGCACCCUACUUGAGGAUCACCCAAGUCUCCGGGUGCUCAAGAA [Mutated MS2 EX1.15] (Eterna round: R96, puzzle: Exclusion NG 1)”, the “apparent KD of MS2 coat protein” value (input ligand: FMN 200 uM) is 9.33 nM, the “apparent KD of MS2 coat protein” value under setting [1] is 8.22 nM and the “apparent KD of MS2 coat protein” value (input ligand: none) was 13.2 nM.

For the sequence “UUUCAUCAUGUAGGAUAUGCGUGGCGAAGCUAUGCAGAAGGACAUGAGGAUCACCCAUGUUCUAGCGUCUGCGUACAGAUGCUA [JL ENG1 1.35] (Eterna round: R96, puzzle: Exclusion NG 1)”, the “apparent KD of MS2 coat protein” value reads like this: (input ligand: FMN 200 uM) 226 nM; under setting [1], 45.1 nM; (input ligand: none) 52.4 nM.

As to “GUGUACAGAGGAUAUACUUGAAUCUAGCGAAGCUAGGUUUGACAUGAGGAUCACCCAUGUAGAAGGCUGUACAC [Dot plot directed A v1] (puzzle: Exclusion 2)”, under setting [2], the “apparent KD of MS2 coat protein” value came to 13.7 nM.

As for “GCAUACUAAGGAUAUACAUGAGGAUCACCCAUGUUGCCAAAUGGCAGCAUCACCUGGAGUAGAAGGUAGAUGUA [Atanbi] (puzzle: Exclusion 3)”, under setting [2], the “apparent KD of MS2 coat protein” value was found to be 29.7 nM.

For the sequence “GUGGGACAUGAGGAUCACCCAUGUCAGGAUAUUUGGGCGAGAUUCGAUCUCGUUAGCCGGAGAAGGGACGUAUG [Eternabot (L2) Solution 47] (Eterna round: R97, puzzle: Exclusion 1)”, the “apparent KD of MS2 coat protein” value is, setting by setting: (input ligand: FMN 200 uM) 34.7 nM; (input ligand: none) 25 nM.

As to “ACAUGUAUUGCAGGAUAUGGGACACAUGAGGAUCACCCAUGUGACUACAUGUCAUACCAAGCGUCUCAGAAGGGUAUGUACAUG [Ex NG2 #38] (Eterna round: R96, puzzle: Exclusion NG 2)”, the “apparent KD of MS2 coat protein” value by setting is: (input ligand: FMN 200 uM) 21.3 nM; under setting [1], 15.8 nM; (input ligand: none) 18.5 nM.

As to “UGUAUUAGGUCAGGAUAUACAUGAGGAUCACCCAUGUACAUGGAGCGAGUACAGUAUCAUGCAAGGUAGAAGGGACAGUCGACG [success! :D] (Eterna round: R96, puzzle: Exclusion NG 2)”, the “apparent KD of MS2 coat protein” value reads like this: (input ligand: FMN 200 uM) 21.6 nM; under setting [1], 15.7 nM; (input ligand: none) 24.3 nM.

On to “UUUAAUUUUUUUUUUUUACAAGCUUUUUGCUCGUCUUAUACAUGAGGAUCACCCAUGUAGGUGAGAAAUGAAUUAUC [JMF 94] (puzzle: Sensor v3, turn-off variant 2)”, for which the “apparent KD of MS2 coat protein” value reads like this: under setting [3], 26.5 nM; under setting [2], 152 nM; under setting [4], 29.5 nM.

“GGAUCGAGUGUGAGGAUAUACCUAUGGAUACAUAGGUAGAAGGCACAUGAGGAUCACCCAUGUUCCUACGGUCC [Eli bmx4 4.08] (Eterna round: R97, puzzle: Brourd's mod of Exclusion 4)”: the “apparent KD of MS2 coat protein” value (input ligand: FMN 200 uM) came out at 713 nM and the “apparent KD of MS2 coat protein” value (input ligand: none) amounted to 62.3 nM.

As to “UGUGGAGCUUAGGAUAUUGCUCUACCAAGAGGGCGAGAAGGGAGCACAUGAGGAUCACCCAUGUGGUCCGGAAC [Edoroner] (puzzle: Exclusion 6)”, the “apparent KD of MS2 coat protein” value reads like this: under setting [3], 26 nM; under setting [2], 14.7 nM; under setting [4], 14.6 nM.

Regarding “GAUCAGGUAGGAUAUGCAGGAUCGGACUUGAGGAUCACCCAAGUGGCCAAAGUGCGUCCCGCAGAAGGGCCAAAAC [Biinxelace] (Eterna round: R97, puzzle: Exclusion 5)”, the “apparent KD of MS2 coat protein” value is, setting by setting: (input ligand: FMN 200 uM) 439 nM; (input ligand: none) 618 nM.

As for “AUAAAUCAUGUAGGAUAUGCGUGGCAAAGCUAUGCAGAAGGACAUGAGGAUCACCCAUGUCUUUCCGUCUGAGUACAGACGGGA [Mat - Exclusion NG 1 - Mod of JL - D47] (Eterna round: R96, puzzle: Exclusion NG 1)”, the “apparent KD of MS2 coat protein” value (input ligand: FMN 200 uM) turned out to be 172 nM, the “apparent KD of MS2 coat protein” value under setting [1] is 21.1 nM and the “apparent KD of MS2 coat protein” value (input ligand: none) stood at 24.9 nM.

For the origin of these results see the supplement of paper PMC9170038.
